The results in this text go back to the supplement of paper PMC12042874.

± gives the uncertainty stated by the source.

A short description of the series: amyloid nucleation score (Sup35N fusion, yeast selection) (log enrichment); library NNK3; higher = more nucleation; inactive = no reads after selection. In outline: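 The nucleation score is the log enrichment of output over input reads, calculated with DiMSum and centred on the mode score of non-aggregating sequences. Sequences with under 100 input reads were excluded. Reads came from Illumina sequencing of plasmid inserts from psi-negative yeast expressing Sup35N fused to peptides of 20 random codons, induced 24 hours with 100 μM copper sulfate and grown 7 days at 30°C without adenine and uracil.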
As to GLDGTGHKYDGQFARRWNLR, the amyloid nucleation score result is “inactive”.

Take GLDHSKGYLQLS: the amyloid nucleation score result was “inactive”.

For GLFFW, the amyloid nucleation score was -0.669 ± 0.74. Under GLFYMMLLTRMGRYRGERNG stands 1.18 ± 0.1; under GLHVTCGRDYHGWMGDCSMA, “inactive”. Under GLKNRVSGPPFASTYFWSAL stands “inactive”; under GLLVWQCMWGLDKKYLHSVY, “inactive”; under GLRVQCWECTIRSFGV, 0.448 ± 0.24. In turn, GLSVVYSNRYNTWVRDLKDW had an amyloid nucleation score of 0.376 ± 0.22. GLSYNFHLCQVLVIFMVDGS: the amyloid nucleation score stood at 1.66 ± 0.1. As for GLTLFWITAVAQAWDWLDPL, the entry is “inactive”; as for GLVLISKC, “inactive”.

In the case of GLVNCEHVWRIETKLVTPHL, the amyloid nucleation score was -0.764 ± 0.76. Under GLYPQWLGDGRWLSSGLATL stands 0.138 ± 0.33; under GMQALIVFSSVVMRYAFVEG, -1.18 ± 1.7.

As for GMRFRCKRYVCVLQ, the amyloid nucleation score was -0.078 ± 0.98. On to GMTEGYYLESVGGSKFDNVV, for which the amyloid nucleation score entry is “inactive”.

As for GNCGRSGINCHMTGTSVVRC, the amyloid nucleation score entry is “inactive”. With GNCLIRLTYR, the amyloid nucleation score entry is “inactive”. As for GNFSRLDSCFTVVRARVKCN, the entry is “inactive”; as for GNSAYK, “inactive”; as for GNSIRAVVLLRMGLELDSGV, “inactive”.

GPLRVPVMMGCWRRIDRMPW: the amyloid nucleation score result is “inactive”. GPSLVVNDLFGFCMVMYLND: the amyloid nucleation score entry is “inactive”. For GQPAH, the amyloid nucleation score entry is “inactive”.

Consider GRDAVHHCMLRESQRKLREV, for which the amyloid nucleation score entry was “inactive”. Under GREFRICNSFVWVSVFIFCG stands “inactive”; under GRHVLGCVDITTGARSLPRM, “inactive”; under GRKDAKR, “inactive”. With GRLCELITSMY, the amyloid nucleation score entry is “inactive”. As to GRLLRTMVD, the amyloid nucleation score entry is “inactive”.

GRPTSRLMSNWTFPSATVSW: the amyloid nucleation score entry is “inactive”. Under GRRSNCINSVNSGTRGRRRA stands “inactive”. As for GRSLCVVCSGLVWLCW, the amyloid nucleation score was found to be 2.19 ± 0.077. As to GRSSCLSTFC, the amyloid nucleation score result was “inactive”. As for GRSWVLV, the entry is “inactive”; as for GRSYREIMDSIFCGQFFYNK, 2.45 ± 0.077; as for GRVPLPCICDRWYYLEGWEV, -0.034 ± 0.96. Under GSATCAS stands “inactive”; under GSHICGALSSRDLFSGVLRI, “inactive”; under GSISIVVQM, 2.2 ± 0.075. Consider GSKFIFFLMFYGVWLRSPSK, for which the amyloid nucleation score entry is “inactive”. Under GSMFFNVC stands 0.254 ± 0.28; under GSPECPLVEV, “inactive”; under GSSRSGKGHCMLRVSVFYCV, “inactive”. Under GSTGVIDDLSKVHCGGMCVD stands “inactive”; under GSTSRIPGVLVSKRRANMQH, “inactive”; under GSTVEYTFGDWKYQDMSSVC, “inactive”. GSTYTVGSAGSSMTTRDLDM: the amyloid nucleation score entry is “inactive”.

On to GSVQTHFLDYGCSPNMDMLV, for which the amyloid nucleation score entry is “inactive”. As for GSYTLYFVIWLFHIRFYGTR, the entry is “inactive”; as for GTDVRS, -0.272 ± 0.43; as for GTIMMWLGVQRVLTASGKGG, “inactive”. On to GTNDDESRRRRREWD, for which the amyloid nucleation score result was “inactive”.

For the substance GTNIFVKTDTYCPFICST, the amyloid nucleation score result is “inactive”. As for GTRIGEIRLASFGSVRGFNV, the entry is “inactive”. GTYLGELVTGLTPGRCPGHF: the amyloid nucleation score entry is “inactive”.

For GTYLVSDAAGFYSWYLHYSF, the amyloid nucleation score result was “inactive”. Under GTYVKLLEVFTSFSWFRRFF stands “inactive”; under GVDCQASILHPCLFF, “inactive”. As for GVDFEDQPSSQDFLYSARYL, the entry is “inactive”. Under GVFDYTYGRLVAVFKGFGNY stands “inactive”. As to GVFVEIRILYKGKWYTCMSK, the amyloid nucleation score entry was “inactive”. As for GVGNKGSTKNLEQVTASVVV, the entry is “inactive”; as for GVKGFQRQKRIFFGFCEFKV, “inactive”. On to GVNVTKVFTFRMVSCGPDDF, for which the amyloid nucleation score was 0.294 ± 0.21. Under GVPMCSWGMIILL stands “inactive”. Consider GVSNRHGGTIYRQRAMHSVG, for which the amyloid nucleation score entry was “inactive”. As for GVWRLSVYT, the entry is “inactive”; as for GWGPGARGGLEDRGDCVCFL, “inactive”; as for GWLLRCVSTLGGLKTLLC, “inactive”. As for GYLLTVLLLSMFNSFDNDWL, the entry is “inactive”.

Take GYMGVGRIVSA: the amyloid nucleation score result is “inactive”.

Take GYNNVESGNKYMLEDDFAFS: the amyloid nucleation score result is “inactive”. Under GYQDAFIP stands “inactive”; under GYRRKNRHSWTDPGITALNK, “inactive”; under GYVPMYVCLSPYHKTVLWLS, 0.447 ± 0.2.

With GYWWELSSKVNVCAMMHRPW, the amyloid nucleation score entry is “inactive”. As to HAEFSEHITCGGSGPSCFVG, the amyloid nucleation score entry was “inactive”. Under HAFRVSLSLVVVCCVIWDTN stands “inactive”; under HANRSCCLPCIHLPFSRVLS, “inactive”; under HAQCLMSIIEVS, -0.029 ± 1.1. The substance HCHDVGVLLIKFCNNLWCSH registered an amyloid nucleation score of 1.99 ± 0.1. Under HCLLCNYRLWSACKCPGYVS stands “inactive”. For HCRDEYYIYNRI, the amyloid nucleation score result was “inactive”. On to HEKSIRVESMAVLIRPVTRS, for which the amyloid nucleation score entry is “inactive”. In turn, HFARDPLSERSKFPLIF returned an amyloid nucleation score of 0.623 ± 0.15. Under HFIKGGLHCVS stands “inactive”.

Substance HFQCLMSVRSGSNQTRDILL returned an amyloid nucleation score of 1.28 ± 0.15. As for HFSKHTVTNRPYDVHNLGKC, the entry is “inactive”; as for HFSLGLVMYLCSLGNVRP, 1.47 ± 0.11. Under HGDVCMNMGYNRT stands “inactive”. For HGFERSRSGNRSGLIDDLGC, the amyloid nucleation score entry was “inactive”. Under HGFFNLWWRARLHLAPLHHH stands “inactive”; under HGGCC, “inactive”. Under HGGIHCYFFYSYGDLEKEIL stands 2.44 ± 0.078; under HGMPMVAFITFVVNIRGLCD, 0.079 ± 0.81; under HGWSS, “inactive”. As for HGWYSVFADSRRYCKRVRYT, the entry is “inactive”; as for HHAVYIVVRMADKACDWGCC, 1.84 ± 0.078. In the case of HHLGRSLGIVTSLQLGIILL, the amyloid nucleation score result is “inactive”. As for HIEVCGTLLYCGDRQISVNN, the figure is 0.49 ± 0.27. Turning to HIFHQIKANDHAIFLGNVSG, the amyloid nucleation score entry was “inactive”. As for HIKKRYKLLAMLLMSDLR, the entry is “inactive”.

For the substance HINISFISYYRRRMYYNVCG, the amyloid nucleation score was determined as 1.62 ± 0.092. Substance HIRFWSDNRT gave an amyloid nucleation score of 0.468 ± 0.2. Under HIRRCEVTNTF stands “inactive”; under HITCVMSIKTRGLRMTERGS, 1.51 ± 0.096; under HITVNRSKGFDGSRTAPFQM, “inactive”. For HIVLVSRLHITAGGRF, the amyloid nucleation score is -0.179 ± 0.65. Regarding HIWAHAFISLVLWLSPLSVS, the amyloid nucleation score entry was “inactive”. HKFDNKIRPTWYVVLPIFNA: the amyloid nucleation score result was “inactive”. For the substance HKITVNLS, the amyloid nucleation score entry is “inactive”. HKRIFGCVISVPFTSCFT: the amyloid nucleation score result is “inactive”.

In the case of HKRLMFDMYHPIWMFYCSAC, the amyloid nucleation score entry is “inactive”.

In the case of HKWAI, the amyloid nucleation score result was “inactive”. As for HLHVVHKIAS, the figure is -0.471 ± 0.82; as for HLLTLTI, 0.501 ± 0.26; as for HLSLAVEFA, “inactive”. Consider HLTHFQQILRFNKAETCVRT, for which the amyloid nucleation score result was “inactive”. As for HLTHVYVADSVGLKLFVYHP, the figure is 1.9 ± 0.072.

Turning to HLTLSAQRATSVVCERLQIS, the amyloid nucleation score result is “inactive”. Under HLWTFEITSTGYL stands “inactive”; under HMVSTDVTENLWFRQ, “inactive”; under HNFYKGFDYHLECMGADTGE, “inactive”. HNSACFANSDEVSVASRAMT displayed an amyloid nucleation score of 2.45 ± 0.08.

In the case of HNSRN, the amyloid nucleation score was 0.186 ± 0.21. In the case of HNVCTKAKTRMYRVERS, the amyloid nucleation score result was “inactive”.

With HNVFVFCNMAVIELQVNDWL, the amyloid nucleation score was determined as 3.26 ± 0.063. As to HPMLFSFYVKGRVFLSRV, the amyloid nucleation score entry is “inactive”. As for HPSVVLHGEATCTASRVLQV, the entry is “inactive”; as for HQPGSRLI, “inactive”.
